According to patent publication US9522198B2, “Methods and compositions related to targeting tumors and wounds” (Sanford-Burnham Medical Research Institute, priority 2006, dated 2016):
Like-named read-outs stand apart in the source and are kept apart here. Ends that are not written are not given here.

Legend:
[1] = target: albumin (Homo sapiens, UniProt P02768); assay: Aggregate formation in albumin solution (turbidity); type: biochemical; details: added to an albumin solution
Description: (§1) CLT1 contains a sequence of three consecutive hydrophobic residues, LII (leucine-isoleucine-isoleucine). This motif is very similar to the VII sequence (V, valine) which causes proteins to form large insoluble aggregates (Esteras-Chopo et al. 2005). […] The ability of CLT1 to aggregate proteins correlates with its cytotoxicity for human umbilical venous endothelial cells (HUVECs).

[2] = system: human umbilical venous endothelial cells (HUVECs); type: cell-based
Description: as §1

[3] = target: T1, fibrinogen (Homo sapiens, UniProt P02671+P02675+P02679); assay: Aggregate formation with plasma proteins, light scattering at 600 nm (turbidity); type: biochemical
T1 sequence (P02671 20-629 limits assumed): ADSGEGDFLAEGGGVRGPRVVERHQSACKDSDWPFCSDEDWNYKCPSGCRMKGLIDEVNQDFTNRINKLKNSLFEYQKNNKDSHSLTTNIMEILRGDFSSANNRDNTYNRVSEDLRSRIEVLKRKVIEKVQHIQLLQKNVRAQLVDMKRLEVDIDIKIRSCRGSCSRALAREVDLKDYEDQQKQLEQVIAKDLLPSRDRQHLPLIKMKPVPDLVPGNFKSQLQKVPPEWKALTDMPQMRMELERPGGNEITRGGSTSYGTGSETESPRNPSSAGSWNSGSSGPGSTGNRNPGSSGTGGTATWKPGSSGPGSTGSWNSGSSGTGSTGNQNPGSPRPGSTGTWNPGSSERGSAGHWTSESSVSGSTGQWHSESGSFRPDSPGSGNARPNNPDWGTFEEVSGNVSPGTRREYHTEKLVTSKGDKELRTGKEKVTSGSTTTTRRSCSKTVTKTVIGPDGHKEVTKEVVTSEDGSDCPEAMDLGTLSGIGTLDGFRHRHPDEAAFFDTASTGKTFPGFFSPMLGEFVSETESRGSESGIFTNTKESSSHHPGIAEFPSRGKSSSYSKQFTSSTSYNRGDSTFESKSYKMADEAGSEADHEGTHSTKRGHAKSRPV
T1 sequence (P02675 31-491): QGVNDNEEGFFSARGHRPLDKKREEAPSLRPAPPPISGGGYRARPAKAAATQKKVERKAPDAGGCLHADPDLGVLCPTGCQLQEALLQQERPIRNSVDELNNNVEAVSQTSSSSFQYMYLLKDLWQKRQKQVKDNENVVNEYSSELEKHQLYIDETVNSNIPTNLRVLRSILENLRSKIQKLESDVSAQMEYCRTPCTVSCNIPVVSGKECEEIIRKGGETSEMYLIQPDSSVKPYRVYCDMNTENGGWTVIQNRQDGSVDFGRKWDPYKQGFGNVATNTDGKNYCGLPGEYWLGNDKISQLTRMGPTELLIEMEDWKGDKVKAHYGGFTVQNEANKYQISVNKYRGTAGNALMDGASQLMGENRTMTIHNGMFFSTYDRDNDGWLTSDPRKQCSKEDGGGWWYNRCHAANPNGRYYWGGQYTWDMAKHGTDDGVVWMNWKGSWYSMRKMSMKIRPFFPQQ
T1 sequence (P02679 27-453): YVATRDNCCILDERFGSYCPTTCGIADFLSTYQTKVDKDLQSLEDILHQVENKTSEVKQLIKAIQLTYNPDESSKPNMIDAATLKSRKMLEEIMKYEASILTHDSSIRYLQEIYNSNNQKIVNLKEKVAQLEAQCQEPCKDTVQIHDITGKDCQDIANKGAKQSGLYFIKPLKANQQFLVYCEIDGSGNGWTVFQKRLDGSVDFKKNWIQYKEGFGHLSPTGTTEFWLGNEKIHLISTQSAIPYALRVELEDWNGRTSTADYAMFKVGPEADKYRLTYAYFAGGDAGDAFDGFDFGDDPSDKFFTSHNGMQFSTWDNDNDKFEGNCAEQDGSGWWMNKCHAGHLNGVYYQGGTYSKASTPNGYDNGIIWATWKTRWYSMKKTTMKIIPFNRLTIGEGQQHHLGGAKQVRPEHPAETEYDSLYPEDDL
Description: as §1

[4] = system: fibronectin; assay: as above; type: biochemical
Description: as §1

## CGLIIQKNEC (also: cyclic, ring type not given here, fluorescein conjugate, site not given here) [CLT1, cyclic decapeptide from phage library screened on plasma clots; tested as fluorescein conjugate]
[1]
  aggregate formation in albumin solution: not amyloidogenic
[2]; HUVECs
  cytotoxicity for endothelial cells: cytotoxic for endothelial cells
[2]; confluent HUVECs, 150 μg/ml
  cell death: not in confluent HUVECs
[2]; proliferating HUVECs, 150 μg/ml in culture media, within 24 h
  cell death: induced cell death
[3]
  aggregate formation with fibrinogen: form aggregates
[4]
  aggregate formation with fibronectin: form aggregates
